The record followed here is publication PMC3631511.

For assay [1], the target named is ΔE22-Aβ_(1-39) (Japanese mutant Aβ). As to the kind of experiment: critical concentration.
The target is the same in assay [2]. Description: fluorescence polarisation. On the technique in general: Polarisation of emitted light reports the rotation of a fluorescent probe.

“ΔE22-Aβ_(1-39) (Japanese mutant Aβ) (peptide)” yielded a critical concentration (Cr) in assay [1] of 0.167 µM. This substance also displayed a k (first-order rate constant of the increase in anisotropy on aggregation) in assay [2] of 0.08 s⁻¹.
